Source: the domain aggregation screens of Martell et al. (2025)

Assay: soluble fraction after stress (log2 fold change); higher = more stays soluble; pooled small domains, quantitative proteomics
Conditions: stress: 50 degC
How it was run: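 The stress applied to every library was 50°C. These custom libraries of small protein domains were pooled and measured at high throughput with quantitative proteomics as the read-out. Aggregation propensity is expressed as the base-two logarithm of the fold change in how much of each protein remains soluble. The higher the value, the more of that protein stays in solution.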

Sequence	soluble fraction (log2)
HMGMVEFEIGERDHSEDVSRKLFEAGLIEDASDFNQYMIEKKMDDHLQTGKYQIPKGATKDEILELIVR	-0.00544
HMLEPEVLDLIGQVKSVHHFSVTQSHQLEKLVRHAHTLGFEIAELKSLLASSPNAKSLLSSLDQKLEPLRM	-0.909
HMEVTLTLKSFGTAKVAVIKAIQSITGLGLMDAKKLVDAAPSVIKEKISPSEAEQYKKTLVDAGAEVEI	-0.806
HMERLKYSQVVDLFKGEQVKSFVLDESNQLKMELQDGSTVSYKLRSFEQFYLDLSDTVKEQKESGIITDYD	-0.746
HMSVFGDNVARLRAEHGMSQRALAERLEITNGTVAAWESRDTLPDYDRIRQIAEIFDVPIPQLFAKYIP	-1.66
HMPLPFSPVMFVGTKSGAQTDLDGNYKIETYYSSDSLKVVVLGYAPLAKKVKQGTTSVVNFELSAAS	0.113
HMESSKLQASIINYLERRPTQKFTAEELFKGLSLEKASVFNELVKELTSLERSHKVEITADDKFKIARPQ	-0.126
HMKKPRKTSRKSIENAAIFYLQRFSSSIENLRRVLMRRVYRSAQYHNTKPEEDAKIVDSIIYRLIETGVL	-0.0617
HMPHITDAEWEVMRVVWANHHVTSKEVISILEDKMNWKATTIKTLLGRLVEKGALSTEQDGKKFIYTAR	-1.5
HMSINIDEEKKILGPNADQIIKGITTWGQGLVSKGIWSDADFEEFKIFAATGNGINALNKVRKYY	-0.255
HMTYTGTVTGVDEGGLRVRSSTSTENTSNVITKVYTGDTFDVLDTVYNGSAKWYKIGFTYNGTYTYGYVSA	-1.17
HMGEGIRIDSTAVVQVGEKMYAYLGGDGFSKEFWTNLPASGELAVTLKFEPIPMDAESLDFYEMPA	0.0315
HMGSEISYSEFLNRVEQGQVAAVRLDGEQIFITGPTGEAYQTIQPRNTDVLPDLREAGVEIQAAPQ	-0.0723
HMGPSSIVVYVSGAVKTPGVYTLAPGSRVDDAVRAAGGLSERAESAGTNLAAQLSDGEHVHVAAAGE	0.228
HMASPEIAFLNKFYQLSNTVNEISVMKIVKNYQEKYQQRISIEQMAKTLKTMGYAVRNNIISNIEEAPV	-1.3
HMSLTMPKLIGMHLFQAERTLNYYGFQYKVEGPDSASVVIDQYPKEGVTVDPHYPITLKIGPSA	-0.158
HMVYNQYILTQSVRLREEPGISGRVIRLLETGTTVELVDTVVVNKDDYDWVWVKLSDGAVGWIIKSAIDI	-0.529
HMNNLLEDIKARLMAQAEAGGHIDTETELAEHFGVTRYRIRKELDLLSQMGLLRRQPKNGIEVLTV	-0.106
HMRRSSQQLTLTEVSTIKEMVTSEEYRHVPTGTLALLAQRLRKVFASSSTWYRLVRIYKWRRPRGRIH	0.549
HMATPSTGQVSVVRLNLRVSPSISSPVVTRLTQGDTVKILAASDDGRWYKVATADGRTGWLYTIYITAE	-0.37
HMVPAMEVALEDARRAIEQVVSGERTSVQLSSQEAMIRKLQHQMAKDANLFSRSSGVEPQRRVTIYTN	0.0136
HMLQLDATDRALIVATQGGLPLVPRPYQVVGEQLGISGEEVVARLRALLDAGVIRRIGAVPN	-0.283
HMSDDSTIVELLASSLRRDIAFGTLLPDQKLKLNELRTRYGGSIHSMRETLRILSAEGLVEATAQRGFRVT	-0.0813
HMTRNEFLTALRGRLSALPKEEQDAALKYYEEYFDEAESEEDAARQLGSPDSIAEKILADYA	-0.17
HMDRSLYVGDAVGFDSARGLMEIEVKNKFSVVAVSLKKKPSGNFITPLLRMEKKKGEAVTVAPGSGHR	-0.33

Sequence	soluble fraction (log2)
HMQERNYIVRRGDTLWDLAKTYYGSGTKYTVIYDANRDNIEAEAKRRGKQSSNGGYWIYPGTELTI	-0.368
HMTPELTAEEREVLSLLGDEPRTLAELIAASGRDYAALSVLLMGLELSQAVRQLPGNRYERF	-0.934
HMAVDPSVLTRRERQALAWIARGLSNKEVARGLNLAESTVKVHVQSILRKLNLTSRVQAAVYAIEHGIDK	-2.79
HMDNMFMPPVNGWDVRQALQKLQNEMGLQVKMEYSPSETITEGYVISYTPIDGMKVEKGDEVTLVISTGPE	0.225
HMQRQGTVATQQTPLNIRSQPSLSAQVIGQAPKGATVAILGESGDWYQIRYQNITGYSSKQYI	0.145
HMSEVPAAVLVTGGSINLREAPSTDATIIDVAQVGEKMTVLAEKNSWYQVSRGGRNVWVASWVVDPLT	0.208
HMGVRPAALGFQKVRIEPQVGTFREASGDVITPRGLIHAEWKRDEENALHLHYTLPDGVAYA	-0.0327
HMRLEEVSVPQRLLAAIAEEREVQIGIVDGRGGTRVLRVEPLALEGGRLRARDVESGEEFTVLIHRVLL	-0.274
HMQSAKLSYSDFMQKVNAGDVVSVKIQGPKISGVTTGGGKFMTYAPEDPTLVSTLMQKKVEVMAEP	0.178
HMGVMNEYEELRDRYLTGQIWKIGDLVEAKGIEGKIIQRGTNYITFNDSQGKVHKAWLHEIKV	0.184
HMDKNNLLIIYRTNSEGTPYAFSVTPSAKSLDALHKDAKEMLPFLEKSMNNFFSIQIWERAEYLKY	-0.643
HMKYVDYYATLGVARDADLATITKAYRKLARQTHPDLNQGADNEARFKAAAEAYATLKHPEKRAAYDELGQ	-0.00408
HMLTDAAAVKRSVRNLVQYGFYEKPFHPEIGSGVRDLLFENMTPFVANNLSKQIEEIITNYEPRA	-0.396
HMVEDFSEVLLQYIREQGGAIALNDKTDAGVIYDTFGVSKKTFKKAVGDLYKKRLIVLGDEGIRLA	-0.619
HMASMNPVWLEFPNIPWGSAGWRMGWGEDYMRRWAKWYISLAEVERQSYKSDWPEPQEWEGFYAFMEHGT	-1.63
HMLNDMYAVMEIRGQGGELIAKLINQDGSPFYVKKGTTLQSGHVIDEITTTYVRAEKAGAKDYLYF	-0.0846
HMQASIPQSQKDALAKELQALPPHGRNRVLSTFRQQFNISSEKISEFITTPEHLSFIRSKIAEVESDS	0.0722
HMKSNIIPLSLKKPQRLDIFLTNYFVDLSRTQIKKMITDGNIKVNDLIAKPSLKLIGDEIIFYTLPK	-1.24
HMDTIVHFLSDGRRITVRIKRNARKNIILRPMAADAVSATIPPWLGRRQLSAWLSEREDLLLSVLSRAA	-2.14
HMRADYVGGLDPAGDNFLALRTGPGSGYAMILPMGPGTFVTVLRRNGKWLLVELEDGTRGWAYGSYILG	-2.84
HMGGGTPEERLATLAAIAERQEMLLERLGPNNPLVSLGQYSRTLSRMVQLAGFKDASQYFNELPLDFQMPE	-0.212
HMQIYLTPEQFKIIDFMEQMGKITVKDVMDILNIPKRTAQLHLQKLKTLKMIAQTGKGPSSAYLL	-0.959
HMETNFTGTRIATARKAKNMSQAQLAQQLFISPQAVGKWERGESIPDIVTVVKLADVLGVDLNYFSE	-0.12
HMESMIGSLRGRLLELFGDGEVLIEVGGVGYRVIVTPTTTVRLGDVGGDVFVHVHHHIREADQTLYGF	-0.234
HMPRSREVHVEPGMVLEDVTTGFVGAVIRTEKSAGIYVIELEDRRGRRRSFPLGGGFWLDGRPIIALPPLP	-1.19

Sequence	soluble fraction (log2)
HMNLQAYQSVLDKLNEEYGTTFRFPTEEELHEVGLTNTVDPRTATVSATEFEKYMRPIAERISQANL	-0.00884
HMHPEETVNLILDAAFRLFLEKGYEHTSIQDIIGQLGGLSKGAIYHHFNSKEDILIAVTDRMTA	-1.81
HMVSKEELANSIYENKTADELGNIVLRKGKYSGEMLRTIYVKDIGYLEWHSKQSYEYSNAVKWYLKKLE	-1.21
HMPDAIPLETIIKNVNVLAGFLINSKTFTEDDIVMAYNNIMKIKGDHTDEKTLTNDVYTLLTEMN	-0.469
HMSDLLYAHPTEKGFQLVNVTQKVVMVILKTAAPNVYTVKGKNAIVFKEGNSWFYSENHNKKLLNIK	-1.13
HMEVNMEEKMEFVHSYIKTHKTFLFRQLLSESKSRTQVIVTFLVILELIKGGKISVTQENRTDDILINSL	-0.342
HMGYINLNVKVSPEWRDFWRSAYASVVAGYHQNKEHWNTIILDGSIPDKDIKRMIAESYDLVSD	-0.797
HMDNVLGKSGKVIFVNEEINSYGRAFIPGHGEWNIRTKSDQNIHINDGIKVIERDGITLVVEL	-1.14
HMKNLKLVSNTDGIRIDSWLADEFEDYSRSYLRKLIDQDLVYVNGNKIKANYKLKKGDEISISIPEPE	0.142
HMPTTLEGIEKYLSSGLIKGIGPHLAGKLVEAFGTRVFEVVEHQPERLRTVGGIGRTRAESITSAWRDQ	-0.168
HMSEMVIPEDFLAALETNPQAKAFYATLNRQNQYAVYHRLQTAKRPETRAKRIADFVAQLAAGKRF	-0.355
HMPIEQVEVPNLTNMTREEAESTLTSLNLKAQVHEEANEADEGKVFKQGTNTGEMVDEGSTIEIWVS	-0.478
HMTDRKRDAIVQAAIGEFREHGFNGTSMDRVAAAADVSKRTVYNHFPSKEELFEAILLLMWE	-2.09
HMQIIETTVGRVLFNEKVPEAAGYINEVLTKKSLRDIIHGILKKTSVPETAAFLDEIKSLGYNFAF	-0.066
HMEIHQVEFGGKVISFVLERKPVKNVNLHIKPDMTVMVSANEKVPLDFILGFVKQKAAWILKNIQFFEDV	-1.25
HMAVTNLTAKQISDTRWRVTWDSTLASPTYYVYRDGLLMMQTRQELYEFDAARGEQVQIDVLDDMAAAPAE	-0.741
HMGVGERIKARRKEIGLSAEQVAKELGVSPATVYRYESNDIMNMRIDKLEPIAKALHTTPAYLMGWE	-0.0318
HMRVGISRNSGAAGIAVWLTQKLGRPVAKTEEIVHILKNWVDDQYEAGRVTNIGDGELWSVYKQMEAEE	-0.359
HMSLNHDIWVQELKEKRSGYGISQSRLAIAAGMTRQYLSDIETGKVLPSAERKAAITEALERFNPD	-0.368
HMEFNDLNDDEKAILHIMYNTGEKMTTALAARITNRGRNFASKLLKSLVKKEILEWHGTSKQDRNQYYTLA	-0.0326
HMLPPHMEVRAIMILDKRPMALMNIEGEGDGLIVSPGYRFGDGRGRVVSITQTKVVVLWAGTSMEL	-2.28
HMKLSLKTQVKEYLLSYIRDKKLQPGDRLLTQRELAEMLHTSQKVAQMALNSLEEEGIIIRRLGSGSFLAR	-1.11
HMQDPTAVISRVLEERKHQPGALLPILHGIQDALGYVPREAVAQIAQALNLSRAEIHGVVSFYHHFR	-0.547
HMKPQIRRHEKITALVREHGFMSVEQLARELEVTPQTIRRDIGILSAENVLRRYHGGAALGD	-0.586
HMIKEVGYEKFMQMTEEEDIGRVEIDQEENQITFTDKDETAIYKTGMVDDPDLTERLYDAGAEFS	0.0297
